This is an account of results in US20090257987A1, “Method of generating dopamine-secreting cells” (Ramot At Tel Aviv University Ltd., priority 2008, published 2009).

Holding throughout (assay type): cell-based
Test [1] concerns human MSCs. Description: Western blot analysis of TH protein expression after differentiation protocols. As to conditions: result in words. As to the method: MSC isolation, culture, and characterization: Fresh bone marrow aspirates harvested from the iliac crests of adult donors (age 19-76) were diluted with Hanks' balanced salt solution. Mononuclear cells were isolated by centrifugation in Unisep-Maxi tubes (Novamed, Jerusalem, Israel) by density gradient. The cells were then plated in Dulbecco's Modified Eagle's Medium (DMEM) supplemented with 15% fetal bovine serum (FBS), 2 mM glutamine, 100 μg/ml streptomycin, 100 units/ml penicillin, 12.5 units/ml nystatin (Biological Industries, Beit HaEmek, Israel) in polystyrene plastic 75-cm^2 tissue-culture flasks. After 24 hours, nonadherent cells were removed. The medium was changed every 3-4 days. Adherent cells were cultured to 70%-90% confluence and reseeded at a density of 5,000-10,000 cells/cm^2. The cells were maintained at 37° C. in a humidified 5% CO2 incubator. The MSCs were characterized for their cell-surface phenotype and their mesenchymal differentiation capacity, as previously described (Blondheim er al., 2006, Stem Cells Dev 15:141-164).
(§1) Induction of differentiation: The differentiation protocol was composed of 2 steps. In step 1, cells were transferred to serum-free medium (DMEM) supplemented with 2 mM glutamine, 100 μg/ml streptomycin, 100 units/ml penicillin, 12.5 units/ml nystatin (Biological Industries), N2 supplement (Invitrogen, New Haven, Conn.) and 20 ng/ml fibroblast growth factor 2 and epidermal growth factor (both from R&D Systems, Minneapolis, Minn.) for 48-72 hours. In step 2, the medium was changed to Basic induction medium containing Neurobasal, B27 (both from Invitrogen), in addition to 1 mM dibutyryl cyclic AMP (dbcAMP), 3-isobutyl-1-methyl-xanthine (IBMX), and 200 μM ascorbic acid (all from Sigma, St Louis, Mo.). The following factors were added to the Basic induction medium in different combinations: brain-derived neurotrophic factor (BDNF; 50 ng/ml), glial-derived neurotrophic factor (GDNF;10 ng/ml), neurturin (100 ng/ml), neurotrophin 3 (NT3; 50 ng/ml), and fibroblast growth factor 8 (FGF8; 100 ng/ml (all from Cytolab, Rehovot, Israel); transforming growth factor β3 (TGFβ3; 2 ng/ml), sonic hedgehog (Shh; 500 ng/ml, both from R&D); estrogen (0.1 μM, Sigma); and all-trans-retinoic acid (RA; 0.1 μM, Sigma).
Western blot: Total protein was extracted by suspending the harvested cells in lysis buffer containing 10 mM Tris base (U.S. Biochemical Corporation, Cleveland, Ohio), 5 mM EDTA (Merck, Whitehouse Station, N.J.), 140 mM sodium chloride (NaCl; BioLab, Jerusalem, Israel), 10 mM sodium fluoride (NaF; Sigma), 0.5% NP 40 (U.S. Biochemical Corporation), and 1 μM phenylmethylsulfonyl fluoride (PMSF; Sigma). Following incubation on ice for 30 minutes, the mixture was centrifuged and the supernatants were collected. Protein content was determined by the BCA protein assay kit (Pierce, Rockford, Ill.). Twenty-five micrograms of protein from each sample were subjected to sodium dodecyl-sulfate (SDS)-polyacrylamide gel electrophoresis (PAGE) (12.5% acrylamide), followed by electrophoretic transfer to nitrocellulose membrane (Schleicher & Schuell, Dassel, Germany). Membranes were probed by mouse anti-TH (1:10,000, Sigma) and mouse anti β-actin (1:10,000, Chemicon, Billerica, Mass.) and then by goat anti-mouse horseradish peroxidase conjugated antibody (1:10,000) (Jackson, West Grove, Pa.) and rabbit anti-emerin (1:5,000, Santa Cruz Biotechnology, Santa Cruz, Calif.), followed by goat anti-rabbit horseradish peroxidase conjugated secondary antibody (1:10,000, Sigma). Adequate controls included HeLa cells (ATCC, Manassas, Va.) as negative control and neuroblastoma M17 cells (BE (2)-M17, ATCC) as positive control. Proteins of interest were detected using the enhanced Super Signal® chemiluminescent detection kit (Pierce).
On the technique in general: Immunoblotting shows a protein as a band on a membrane.

The test system of test [2] is human MSCs. Description: Bright-light microscopy of cell morphology after induction. To be noted: from MSC fibroblast shape. As to the method:
as §1

Test [3] has as its system human MSCs. Put plainly: Immunocytochemistry for neuronal markers Tuj1 and NeuN. As to the method: Induction of differentiation: The differentiation protocol was composed of 2 steps. In step 1, cells were transferred to serum-free medium (DMEM) supplemented with 2 mM glutamine, 100 μg/ml streptomycin, 100 units/ml penicillin, 12.5 units/ml nystatin (Biological Industries), N2 supplement (Invitrogen, New Haven, Conn.) and 20 ng/ml fibroblast growth factor 2 and epidermal growth factor (both from R&D Systems, Minneapolis, Minn.) for 48-72 hours. In step 2, the medium was changed to Basic induction medium containing Neurobasal, B27 (both from Invitrogen), in addition to 1 mM dibutyryl cyclic AMP (dbcAMP), 3-isobutyl-1-methyl-xanthine (IBMX), and 200 μM ascorbic acid (all from Sigma, St Louis, Mo.). […] Cells were photographed with a fluorescence Olympus IX70-[…] microscope with a fluorescent light source (excitation wavelength, 330-385 nm; barrier filter, 420 nm) and a U-MNU filter cube (Olympus, Center Valley, Pa.).

B1: brain-derived neurotrophic factor (protein, UniProt P23560 19-247, looked up)
Neurotrophic factor BDNF …: APMKEANIRGQGGLAYPGVRTHGTLESVNGPKAGSRGLTSLADTFEHVIEELLDEDQKVRPNEENNKDADLYTSRVMLSSQVPLEPPLLFLLEEYKNYLDAANMSMRVRRHSDPARRGELSVCDSISEWVTAADKKTAVDMSGGTVTVLEKVPVSKGQLKQYFYETKCNPMGYTKEGCRGIDKRHWNSQCRTTQSYVRALTMDSKKRIGWRFIRIDTSCVCTLTIKRGR
notes: brain-derived neurotrophic factor (50 ng/ml) added to the Basic induction medium
Consider B1, for which the “TH protein expression level normalized to actin” value in the test on human MSCs [1] (listed as BDNF) is “directly affected the TH protein expression level”; in the test with human MSCs [1] (listed as BDNF alone), “significant results”. The cell morphology entry in the test with human MSCs [2] is on record as “neuron-like appearance”. The NeuN staining result in the test on human MSCs [3] is on record as “stained positive”. Besides, the “Tuj 1 expression” value in the test on human MSCs [3] (versus untreated MSCs) was “higher levels”.
